Measured values as given in US20240181022A1, “AMURINS LYSINS, AND LYSIN-ANTIMICROBIAL PEPTIDE (AMP) CONSTRUCTS ACTIVE AGAINST GRAM-NEGATIVE BACTERIA” (priority 2021, published 2024).
Values after ≈ are worked out from the molar mass of the structure shown. Where no end group is shown, it is not given here.

What was measured:
P. aeruginosa [1] = assay: microbe, parasite or virus in culture; details: Pseudomonas aeruginosa
K. pneumoniae [2] = assay: Checkerboard synergy assay (FICI) against K. pneumoniae; format: cell-based, Klebsiella pneumoniae; details: K. pneumoniae HM-44
Method: Any known method to assess MIC may be used.
Checkerboards are constructed by first preparing columns of e.g., a 96-well polypropylene microtiter plate, wherein each well has the same amount of antibiotic diluted 2-fold along the horizontal axis. […] Bacteria are added to the drug combinations at concentrations of 1×10^5 […] in CAA, for example, with or without human serum or pulmonary surfactant. […] Summation fractional inhibitory concentrations (ΣFICs) are calculated for each drug and the minimum ΣFIC value (ΣFICmin) is used to determine the effect of the Chp peptide/antibiotic combination.
GN370 was further tested in combination with up to seven additional antibiotics (in addition to meropenem) against a variety of bacterial strains, including P. aeruginosa, A. baumannii, E. coli, E. cloacae, and K. pneumoniae. GN370 and the subject antibiotics were tested in a checkerboard assay format, and FICI values were determined, wherein ≤0.5 indicates synergy, >0.5-≤1 indicates additive; and >1 indicates indifferent.

A. xylosoxidans = assay: Serial passage resistance development study, A. xylosoxidans; format: cell-based, Achromobacter xylosoxidans; details: A. xylosoxidans, day 28
E. coli [3] = assay: MIC by broth microdilution against E. coli; format: cell-based, Escherichia coli
K. pneumoniae [4] = assay: GN370 time-kill assay, K. pneumoniae; format: cell-based, Klebsiella pneumoniae; details: for Log10 CFU/mL: K. pneumoniae ATCC 700603
Method: (§1) A kinetic analysis of GN370 bactericidal activity was performed using a time-kill assay format in which CFU reductions of each target organism (P. aeruginosa, K. pneumoniae, A. baumannii, E. coli, and E. cloacae) were measured over 24 hours at 37° C. […] Bactericidal activity was defined as CFU reductions of ≥3-log 10 CFU/mL as compared to the inoculum at the 24-hour time point.

E. coli [5] = assay: MBEC against E. coli biofilm; format: cell-based, Escherichia coli; details: MDR and XDR E. coli (11)
P. aeruginosa [6] = assay: GN370 time-kill assay, P. aeruginosa; format: cell-based, Pseudomonas aeruginosa; details: for Log10 CFU/mL: P. aeruginosa PA25
Method: as §1

Kluyvera ascorbate = assay: MIC by broth microdilution against Kluyvera ascorbate; format: cell-based; details: N 1
Method: (§2) MIC values were determined by broth microdilution against clinical isolates and resistant isolates from a wide range of bacterial species, including isolates from the CDC Antibiotic Resistance bank, including the GN ESKAPE pathogens and E. coli, including carbapenem-resistant Enterobacteriaciae, Acinetobacter, and Pseudomonas.

K. pneumoniae [7] = assay: MIC by broth microdilution against K. pneumoniae; format: cell-based, Klebsiella pneumoniae
Salmonella senftenberg = assay: MIC by broth microdilution against Salmonella senftenberg; format: cell-based; details: N 1
Method: as §2

Citrobacter freundii = assay: MIC by broth microdilution against Citrobacter freundii; format: cell-based; details: N 2
Method: as §2

[8] = test system: Raoultella ornithinolytica; assay: MIC by broth microdilution against Raoultella ornithinolytica; format: cell-based; details: N 1
Method: as §2

Serratia marcescens = assay: MIC by broth microdilution against Serratia marcescens; format: cell-based; details: N 9
Method: as §2

[9] = Escherichia coli, AR Bank, N 17
[10] = Escherichia coli, Weill Cornell, N 13
[11] = Escherichia coli, all isolates, N 30
[12] = Klebsiella pneumoniae, AR Bank, N 32
[13] = Klebsiella pneumoniae, Weill Cornell, N 9
[14] = Klebsiella pneumoniae, all isolates, N 41

## C[C@@H](O)[C@H]1C(=O)N2C(C(=O)O)=C(S[C@@H]3CN[C@H](C(=O)N(C)C)C3)[C@H](C)[C@H]12 [meropenem, reference compound]
P. aeruginosa [1]
  MIC: 64 µg/mL (≈ 167 µM)
K. pneumoniae [2]
  FICI of the antibiotic with GN370: 0.5

## MRLKMARRRYRLPRRRSRRLFSRTALRMHPRNRLRRIMRGGIRF [AM1]
A. xylosoxidans
  change in MIC over serial passage: no increase in the MICs

B1: GN370: lysin-AMP construct, SEQ ID NO: 149: MIDR, FIRL and NPTH moieties N-terminal to GN202 lysin (protein)
chain: MIDRFIRLNPTHGPRRPRRPGRRAPVRTSQRGIDLIKSFEGLRLSAYQDSVGVWTIGYGTTRGVTRYMTITVEQAERMLSNDIQRFEPELDRLAKVPLNQNQWDALMSFVYNLGAANLASSTLLDLLNKGDYQGAADQFPHWVNAGGKRLDGLVKRRAAERALFLEPLS
modifications: GN370 lysin
E. coli [3]; E. coli AR-128
  MIC: (MIC = 0.25 μg/mL)
E. coli [3]; E. coli ATCC 25922 (head of Table 19)
  MIC: 0.5 µg/mL
E. coli [3]; E. coli clinical and resistant isolates
  MIC90: 1 µg/mL
E. coli [3]; [9]
  MIC50: 0.5 µg/mL
  MIC90: 1 µg/mL
  MIC Range: 0.125 to 1 µg/mL
E. coli [3]; [10]
  MIC50: 0.25 µg/mL
  MIC90: 0.5 µg/mL
  MIC Range: 0.064 to 4 µg/mL
E. coli [3]; [11]
  MIC50: 0.25 µg/mL
  MIC90: 1 µg/mL
  MIC Range: 0.0625 to 4 µg/mL
K. pneumoniae [4]; 0.2x MIC, 1 hr
  Log10 CFU/mL: 5.2 Log10 CFU/mL
K. pneumoniae [4]; 0.2x MIC, 3 hr
  Log10 CFU/mL: 5.0 Log10 CFU/mL
K. pneumoniae [4]; 0.2x MIC, 24 hr
  Log10 CFU/mL: 8.5 Log10 CFU/mL
K. pneumoniae [4]; 1x MIC, 1 hr
  Log10 CFU/mL: 2.0 Log10 CFU/mL
K. pneumoniae [4]; 1x MIC, 3 hr
  Log10 CFU/mL: 1.5 Log10 CFU/mL
K. pneumoniae [4]; 1x MIC, 24 hr
  Log10 CFU/mL: 1.5 Log10 CFU/mL
K. pneumoniae [4]; 2x MIC, 1 hr
  Log10 CFU/mL: 1.5 Log10 CFU/mL
K. pneumoniae [4]; 2x MIC, 3 hr
  Log10 CFU/mL: 1.5 Log10 CFU/mL
K. pneumoniae [4]; 2x MIC, 24 hr
  Log10 CFU/mL: 1.5 Log10 CFU/mL
K. pneumoniae [4]; 5x MIC, 1 hr
  Log10 CFU/mL: 1.5 Log10 CFU/mL
K. pneumoniae [4]; 5x MIC, 3 hr
  Log10 CFU/mL: 1.5 Log10 CFU/mL
K. pneumoniae [4]; 5x MIC, 24 hr
  Log10 CFU/mL: 1.5 Log10 CFU/mL
K. pneumoniae [4]; K. pneumoniae, 37° C.
  concentration with bactericidal activity (≥3-log 10 CFU/mL reduction at 24 hours): ≥ 1 ×MIC
E. coli [5]
  MBEC50: 0.5 µg/mL
  MBEC90: 2 µg/mL
  MBEC Range: 0.25 to 2 µg/mL
  Number of isolates at MBEC 0.5 μg/mL: 5
  Number of isolates at MBEC 1 μg/mL: 2
  Number of isolates at MBEC 2 μg/mL: 2
  Number of isolates at MBEC […]: 2
P. aeruginosa [6]; 0.2x MIC, 1 hr
  Log10 CFU/mL: 4.5 Log10 CFU/mL
P. aeruginosa [6]; 0.2x MIC, 3 hr
  Log10 CFU/mL: 4.7 Log10 CFU/mL
P. aeruginosa [6]; 0.2x MIC, 24 hr
  Log10 CFU/mL: 9.5 Log10 CFU/mL
P. aeruginosa [6]; 1x MIC, 1 hr
  Log10 CFU/mL: 1.5 Log10 CFU/mL
P. aeruginosa [6]; 1x MIC, 3 hr
  Log10 CFU/mL: 1.5 Log10 CFU/mL
P. aeruginosa [6]; 1x MIC, 24 hr
  Log10 CFU/mL: 1.54 Log10 CFU/mL
P. aeruginosa [6]; 2x MIC, 1 hr
  Log10 CFU/mL: 1.5 Log10 CFU/mL
P. aeruginosa [6]; 2x MIC, 3 hr
  Log10 CFU/mL: 1.5 Log10 CFU/mL
P. aeruginosa [6]; 2x MIC, 24 hr
  Log10 CFU/mL: 1.5 Log10 CFU/mL
P. aeruginosa [6]; 5x MIC, 1 hr
  Log10 CFU/mL: 1.5 Log10 CFU/mL
P. aeruginosa [6]; 5x MIC, 3 hr
  Log10 CFU/mL: 1.5 Log10 CFU/mL
P. aeruginosa [6]; 5x MIC, 24 hr
  Log10 CFU/mL: 1.5 Log10 CFU/mL
P. aeruginosa [6]; P. aeruginosa, 37° C.
  concentration with bactericidal activity (≥3-log 10 CFU/mL reduction at 24 hours): ≥ 1 ×MIC
Kluyvera ascorbate
  MIC Range: 1 µg/mL
K. pneumoniae [7]; K. pneumoniae ATCC 700603
  MIC: (MIC = 4 μg/mL)
K. pneumoniae [7]; K. pneumoniae HM-44 (head of Table 19)
  MIC: 4 µg/mL
K. pneumoniae [7]; K. pneumoniae clinical and resistant isolates
  MIC90: 4 µg/mL
K. pneumoniae [7]; [12]
  MIC50: 1 µg/mL
  MIC90: 4 µg/mL
  MIC Range: 0.125 to 4 µg/mL
K. pneumoniae [7]; [13]
  MIC50: 2 µg/mL
  MIC90: 4 µg/mL
  MIC Range: 0.25 to 4 µg/mL
K. pneumoniae [7]; [14]
  MIC50: 2 µg/mL
  MIC90: 4 µg/mL
  MIC Range: 0.125 to 4 µg/mL
Salmonella senftenberg
  MIC Range: 2 µg/mL
Citrobacter freundii
  MIC Range: 0.5 to 2 µg/mL
[8]
  MIC Range: 0.25 µg/mL
Serratia marcescens
  MIC50: 32 µg/mL
  MIC90: >64 µg/mL
